From US20210101970A1 (Pfizer, published 2021)

How the values were obtained:
CXCR2 = molecular target: T1, CXCR2 (human, UniProt P25025 1-360); test: flow cytometry (GMFI) on fixed CXCR2 cells, chimeric antibody, goat anti-human PE
T1 construct: whole, on cells
T1 sequence (looked up): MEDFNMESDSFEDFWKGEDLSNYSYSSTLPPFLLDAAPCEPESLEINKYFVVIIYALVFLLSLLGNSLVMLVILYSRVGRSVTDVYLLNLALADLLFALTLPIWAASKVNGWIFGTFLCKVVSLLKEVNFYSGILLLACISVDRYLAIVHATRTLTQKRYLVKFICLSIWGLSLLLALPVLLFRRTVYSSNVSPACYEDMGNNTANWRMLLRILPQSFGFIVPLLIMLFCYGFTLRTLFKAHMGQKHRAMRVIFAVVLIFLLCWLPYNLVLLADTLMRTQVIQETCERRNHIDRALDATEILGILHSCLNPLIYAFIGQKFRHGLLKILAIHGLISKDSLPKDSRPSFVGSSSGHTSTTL
Method: To determine the specificity of the antibodies for CXCR5, the binding of the antibodies to cells expressing other […] was assessed. Briefly, FlowCellect chemokine receptor cell lines expressing CXCR1, CXCR2, or CXCR3 (EMD Millipore, Billerica, Mass.), and Jurkats (ATCC, Manassas, Va.), which express CXCR4, were stained with 5 μg/ml or 10 μg/ml of each anti-CXCR5 chimeric antibody. The cells were then incubated with goat anti-human conjugated with PE (Southern Biotech, Birmingham, Ala.) prior to analysis by flow cytometry using a FACSVerse Analyzer (BD Biosciences, Franklin Lakes, N.J.).

XC277 = molecular target: T2, XC277 (human, UniProt P32302 2-372); test: flow cytometry on HEK-293T cells transiently expressing the FLAG-tagged mutein; ratio of gMFI of the antibody to gMFI of anti-FLAG PE
T2 construct: also called hCXCR5 SI(insertion)
T2 sequence: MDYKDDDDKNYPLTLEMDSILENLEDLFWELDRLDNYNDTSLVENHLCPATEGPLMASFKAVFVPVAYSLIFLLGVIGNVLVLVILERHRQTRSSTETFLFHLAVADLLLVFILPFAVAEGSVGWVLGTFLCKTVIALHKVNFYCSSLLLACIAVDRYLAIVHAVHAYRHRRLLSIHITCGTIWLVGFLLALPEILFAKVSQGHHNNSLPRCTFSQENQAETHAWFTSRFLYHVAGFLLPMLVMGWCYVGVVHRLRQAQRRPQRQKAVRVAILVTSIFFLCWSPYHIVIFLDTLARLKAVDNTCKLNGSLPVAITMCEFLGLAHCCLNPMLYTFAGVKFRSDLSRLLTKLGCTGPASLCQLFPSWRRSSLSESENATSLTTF
Method: (§1) The cells were analyzed by flow cytometry using an Accuri (BD Biosciences Franklin Lakes, N.J.). The geometric mean fluorescence intensity (gMFI) was determined and the ratio for the gMFI of each CXCR5 antibody and anti-flag was calculated.

XC276 = molecular target: T3, XC276 (human, UniProt P32302 2-372); test: as above
T3 construct: also called hCXCR5 D10G
T3 sequence: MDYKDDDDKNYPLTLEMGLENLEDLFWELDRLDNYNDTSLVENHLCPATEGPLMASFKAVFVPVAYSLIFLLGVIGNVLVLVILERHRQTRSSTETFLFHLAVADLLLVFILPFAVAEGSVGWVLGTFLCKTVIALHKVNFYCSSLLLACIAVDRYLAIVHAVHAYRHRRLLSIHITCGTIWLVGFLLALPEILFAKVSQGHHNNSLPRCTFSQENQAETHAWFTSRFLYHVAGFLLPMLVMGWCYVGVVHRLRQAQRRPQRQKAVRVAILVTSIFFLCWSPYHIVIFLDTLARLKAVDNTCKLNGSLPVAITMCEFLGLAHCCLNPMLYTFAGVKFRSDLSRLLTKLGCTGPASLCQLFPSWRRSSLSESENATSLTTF
Method: as §1

XC281 = molecular target: T4, XC281 (human, UniProt P32302 2-372); test: as above
T4 construct: also called hCXCR5 D22A
T4 sequence: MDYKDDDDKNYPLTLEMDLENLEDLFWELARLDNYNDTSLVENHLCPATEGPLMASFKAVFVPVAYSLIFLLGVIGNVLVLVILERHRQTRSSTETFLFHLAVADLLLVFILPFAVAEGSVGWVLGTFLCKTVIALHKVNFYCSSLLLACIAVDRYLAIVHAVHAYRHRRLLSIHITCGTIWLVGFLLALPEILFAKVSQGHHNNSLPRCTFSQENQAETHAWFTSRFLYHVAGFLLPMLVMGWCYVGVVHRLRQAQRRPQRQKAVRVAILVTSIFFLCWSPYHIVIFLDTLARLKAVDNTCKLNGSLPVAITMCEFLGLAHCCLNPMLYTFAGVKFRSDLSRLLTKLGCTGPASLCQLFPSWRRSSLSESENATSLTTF
Method: as §1

XC278 = molecular target: T5, XC278 (human, UniProt P32302 2-372); test: as above
T5 construct: also called hCXCR5 L11T
T5 sequence: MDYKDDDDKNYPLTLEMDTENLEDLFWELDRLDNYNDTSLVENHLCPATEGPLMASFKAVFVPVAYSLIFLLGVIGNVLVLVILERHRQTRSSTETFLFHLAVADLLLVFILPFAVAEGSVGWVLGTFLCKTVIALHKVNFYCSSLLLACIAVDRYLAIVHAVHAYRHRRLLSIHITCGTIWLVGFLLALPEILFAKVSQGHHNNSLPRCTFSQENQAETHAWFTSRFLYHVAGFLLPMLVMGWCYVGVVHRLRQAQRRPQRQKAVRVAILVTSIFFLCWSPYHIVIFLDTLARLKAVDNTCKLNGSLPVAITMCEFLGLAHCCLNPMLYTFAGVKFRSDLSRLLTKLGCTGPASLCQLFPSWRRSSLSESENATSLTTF
Method: as §1

B1: Chimeric 11G2 (antibody, human IgG1, kappa, V domains shown)
VH: EVKLVESGGGLVQPGGSLRLSCATSGFTFTDFYMSWVRQPPGRALEWLGFIRNKANGYTTEYSASVKGRFTISRDNSQSILYLQMNTLRAGDSATYYCVRVYGSTLHYWGQGTILTVSS
VL: DVVVTQSPDSLAVSLGQRATISCRASESVEYHGTSLMHWYQQKPGQPPKLLIYAASNVESGVPARFSGSGSGTDFSLNIHPVEEGDIAMYFCQQSRKVPWTFGGGTKLEIKR
notes: mouse V regions on human IgG1/kappa; also called 11G2 (chimeric)
- binding result (CXCR2): no binding (tested: 5 or 10 µg/ml (not on the sheet))

B2: 2C9 (reference antibody) (antibody, human IgG1, kappa, V domains shown)
VH: EVQLVESGGGLVKPGGSLRLSCAASGFTFSTNAMNWVRQAPGKGLERVARIRSKSNNYATYYADSVKDRFTISRDDSKNTLYLQMNSLKTEDTAVYYCVTMIPFAYWGQGTLVTVSS
VL: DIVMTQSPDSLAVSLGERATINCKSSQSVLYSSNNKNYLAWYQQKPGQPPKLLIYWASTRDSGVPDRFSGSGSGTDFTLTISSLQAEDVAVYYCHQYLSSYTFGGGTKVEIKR
notes: fucosylated
- binding result (XC277): no binding (tested: 1 or 3 µg/ml (not on the sheet))
- binding result (XC276): no binding (tested: 1 or 3 µg/ml (not on the sheet))

B3: Afucosyl humanized 11G2 154/155 (antibody, human IgG1, kappa, V domains shown)
VH: EVQLVESGGGLVQPGGSLRLSCAASGFTFTDFYMSWVRQAPGKGLEWVGFIRNKANGYTTEYSASVKGRFTISRDNAKNSLYLQMNSLRAEDTAVYYCARVYGSTLHYWGQGTLVTVSS
VL: DIQMTQSPSSLSASVGDRVTITCRASESVEYHGTSLMHWYQQKPGKAPKLLIYAASNVESGVPSRFSGSGSGTDFTLTISSLQPEDFATYYCQQSRKVPWTFGQGTKVEIKR
modifications: afucosylated Fc glycan (Asn297)
notes: also called afucosyl h11G2 XC154/XC155; afucosylated h11G2 VL XC154/VH XC155
- binding result (XC281): no binding (tested: 1 or 3 µg/ml (not on the sheet))
- binding result (XC278): no binding (tested: 1 or 3 µg/ml (not on the sheet))
